Assay results published in patent US20050186593A1 (SALK INSTITUTE FOR BIOLOGICAL STUDIES, published 2005).
Values belong to the molecule of their own block, whether it stands above or below them.

Key:
[1] = target: Xenopus activin receptor xActRIIB, expressed in Xenopus embryos from injected synthetic RNA (Xenopus) (UniProt P27041); test: cell-based or functional assay
[2] = target: T1, Mouse activin receptor, full length (encoded by clone pmActR2), expressed on transfected COS cells (mouse, UniProt P27038 20-513); test: competition with 125I activin A on COS cells transfected with pmActR2
T1 construct: also called mActRII; ActRII
T1 sequence (P27038 20-513): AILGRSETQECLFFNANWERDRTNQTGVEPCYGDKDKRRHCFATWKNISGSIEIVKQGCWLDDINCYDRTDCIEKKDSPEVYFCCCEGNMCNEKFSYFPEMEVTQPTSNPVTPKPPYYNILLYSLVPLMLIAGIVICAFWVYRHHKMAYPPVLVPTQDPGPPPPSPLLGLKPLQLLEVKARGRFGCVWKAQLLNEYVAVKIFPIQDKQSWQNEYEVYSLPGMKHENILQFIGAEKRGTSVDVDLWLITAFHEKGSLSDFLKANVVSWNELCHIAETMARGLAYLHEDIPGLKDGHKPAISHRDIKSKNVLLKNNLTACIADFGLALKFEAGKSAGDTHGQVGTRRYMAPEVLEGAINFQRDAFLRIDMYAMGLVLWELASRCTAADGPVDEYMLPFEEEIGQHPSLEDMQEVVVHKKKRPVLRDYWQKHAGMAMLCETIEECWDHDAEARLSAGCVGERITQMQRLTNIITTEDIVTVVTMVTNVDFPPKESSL
Description: (§1) 10⁵ COS cells transfected with either pmActR1 or pmActR2, or 10⁶ untransfected COS cells, were plated in 6 well dishes and allowed to grow overnight. The cells were washed 2× with HDB, 0.1% BSA, and incubated at 22° for 90 minutes in 0.5 ml HDB, 0.1% BSA containing 100,000 cpm (approximately 1 ng, 75 pM) ¹²⁵I activin A (5 μg activin A was iodinated by chloramine T oxidation to a specific activity of 50-90 μCi/μg; iodinated activin A was purified on a 0.7×20 cm G-25 column) and varying amounts of unlabeled competitor hormone. Following binding, the cells were washed 3× with cold HDB, solubilized in 0.5 ml 0.5 N NaOH, removed from the dish and radioactivity was measured in a gamma counter. Data presented in FIG. 5 are expressed as % specific binding, where 100% specific binding is the difference between binding in the absence of competitor and binding in the presence of a 100 fold molar excess of unlabeled activin A. Binding parameters were determined using the program LIGAND [Munson P. J. and Rodbard, D., Anal. Biochem. 107:220-259 (1980)].
This affinity and specificity of binding match those observed following binding of activin A to a number of other activin-responsive cell types. […]

[3] = target: T1, Mouse activin receptor, full length …; test: 125I activin A competition radioreceptor assay on COS cells transfected with pmActR2; LIGAND
Description: as §1
(§2) To verify that the cloned receptor is activin specific, competition binding experiments were performed on COS cells transiently transfected with either pmActR1 or pmActR2. […] This binding affinity is consistent with that measured on other activin-responsive cell types [see, for example, Campen, C. A. and Vale, W., Biochem. Biophys. Res. Comm. […]

[4] = target: T2, Mouse activin receptor, C-terminally truncated (encoded by clone pmActR1), expressed on transfected COS cells (mouse, UniProt P27038 20-354); test: 125I activin A competition radioreceptor assay on COS cells transfected with pmActR1; Scatchard/LIGAND
T2 construct: pmActR1 codes for a protein of 342 amino acids, the last 17 of them from the vector; It lacks a complete intracellular kinase domain; the real chain is truncated and its signal peptide (1-19) is removed
T2 sequence (P27038 20-354 limits assumed, form in doubt): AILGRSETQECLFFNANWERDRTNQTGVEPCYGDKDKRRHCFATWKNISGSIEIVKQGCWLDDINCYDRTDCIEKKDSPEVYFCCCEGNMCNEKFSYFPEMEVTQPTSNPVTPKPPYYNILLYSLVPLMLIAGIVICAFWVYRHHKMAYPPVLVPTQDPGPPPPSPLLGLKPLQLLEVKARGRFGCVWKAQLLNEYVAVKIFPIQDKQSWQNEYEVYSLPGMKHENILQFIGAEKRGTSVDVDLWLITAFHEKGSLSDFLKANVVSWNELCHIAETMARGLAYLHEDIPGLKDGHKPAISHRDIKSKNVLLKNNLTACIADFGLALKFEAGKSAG
Description: as §1, §2

Sequence of Xenopus activin receptor xActRIIB, expressed in Xenopus embryos from injected synthetic RNA (Xenopus) (P27041 other isoform, or with tags, fused parts or gaps): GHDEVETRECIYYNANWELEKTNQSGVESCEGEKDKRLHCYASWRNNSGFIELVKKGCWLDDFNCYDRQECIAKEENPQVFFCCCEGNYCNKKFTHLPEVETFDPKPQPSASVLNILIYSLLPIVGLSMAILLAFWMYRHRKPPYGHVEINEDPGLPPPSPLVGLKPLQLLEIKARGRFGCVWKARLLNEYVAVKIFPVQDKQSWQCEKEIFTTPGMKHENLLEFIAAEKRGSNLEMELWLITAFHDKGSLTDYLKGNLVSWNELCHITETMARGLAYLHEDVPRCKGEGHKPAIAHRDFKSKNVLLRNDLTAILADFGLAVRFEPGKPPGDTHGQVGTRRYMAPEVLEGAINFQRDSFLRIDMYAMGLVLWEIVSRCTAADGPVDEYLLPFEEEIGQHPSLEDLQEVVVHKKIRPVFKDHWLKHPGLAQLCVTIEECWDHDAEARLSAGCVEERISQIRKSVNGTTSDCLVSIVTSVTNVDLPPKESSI

muscle-specific actin RNA in animal caps (ribonuclease protection assay); sensitivity to activin against control embryos, embryos injected with 0.4 ng xActRIIB RNA [1]: 10 fold
muscle-specific actin RNA in animal caps (ribonuclease protection assay); sensitivity to activin against control embryos, embryos injected with 2.0 ng xActRIIB RNA [1]: 100 fold
Molecule: Purified porcine activin A (from UniProt P03970 309-424) (ligand)

binding result [2]: binds
B1: Recombinant human (rh) activin B (ligand, UniProt P09529 293-407, looked up)
chain: GLECDGRTNLCCRQQFFIDFRLIGWNDWIIAPTGYYGNYCEGSCPAYLAGVPGSASSFHTAVVNQYRMRGLNPGTVNSCCIPTKLSTMSMLYFDDEYNIVKRDVPNMIVEECGCA

fold lower potency than activin A in competition [2]: ~10 fold
B2: Recombinant human (rh) inhibin A (ligand)
chain 1: STPLMSWPWSPSALRLLQRPPEEPAAHANCHRVALNISFQELGWERWIVYPPSFIFHYCHGGCGLHIPPNLSLPVPGAPPTPAQPYSLLPGAQPCCAALPGTMRPLHVRTTSDGGYSFKYETVPNLLTQHCACI
chain 2: GLECDGKVNICCKKQFFVSFKDIGWNDWIIAPSGYHANYCEGECPSHIAGTSGSSLSFHSTVINHYRMRGHSPFANLKSCCVPTKLRPMSMLYYDDGQNIIKKDIQNMIVEECGCS

Kd [3]: 0.18 nM
Kd [4]: 0.18 nM
B3: Recombinant human (rh) activin A (ligand, UniProt P08476 311-426, looked up)
chain: B2 chain 2
notes: also called 125I activin A; iodinated activin A
